From US20160319032A1
Values belong to the substance of their own block, whether it stands above or below them.

What was measured:
[1] = target: α4β1 integrin on J6.77 cells (UniProt P13612); assay: cell-based or functional assay
[2] = target: α5β1 integrin on K562 cells (UniProt P08648); assay: cell-based or functional assay
[3] = target: human αV on parental A375M cells (αVβ3 and αVβ5 integrins) (human) (UniProt P06756); assay: cell-based or functional assay
[4] = target: mouse β6 on transfected HEK-293 cells (mouse) (UniProt Q9Z0T9); assay: FACS, transfected HEK-293 (parental: 0)
Chain of mouse β6 on transfected HEK-293 cells (mouse) (Q9Z0T9 22-787): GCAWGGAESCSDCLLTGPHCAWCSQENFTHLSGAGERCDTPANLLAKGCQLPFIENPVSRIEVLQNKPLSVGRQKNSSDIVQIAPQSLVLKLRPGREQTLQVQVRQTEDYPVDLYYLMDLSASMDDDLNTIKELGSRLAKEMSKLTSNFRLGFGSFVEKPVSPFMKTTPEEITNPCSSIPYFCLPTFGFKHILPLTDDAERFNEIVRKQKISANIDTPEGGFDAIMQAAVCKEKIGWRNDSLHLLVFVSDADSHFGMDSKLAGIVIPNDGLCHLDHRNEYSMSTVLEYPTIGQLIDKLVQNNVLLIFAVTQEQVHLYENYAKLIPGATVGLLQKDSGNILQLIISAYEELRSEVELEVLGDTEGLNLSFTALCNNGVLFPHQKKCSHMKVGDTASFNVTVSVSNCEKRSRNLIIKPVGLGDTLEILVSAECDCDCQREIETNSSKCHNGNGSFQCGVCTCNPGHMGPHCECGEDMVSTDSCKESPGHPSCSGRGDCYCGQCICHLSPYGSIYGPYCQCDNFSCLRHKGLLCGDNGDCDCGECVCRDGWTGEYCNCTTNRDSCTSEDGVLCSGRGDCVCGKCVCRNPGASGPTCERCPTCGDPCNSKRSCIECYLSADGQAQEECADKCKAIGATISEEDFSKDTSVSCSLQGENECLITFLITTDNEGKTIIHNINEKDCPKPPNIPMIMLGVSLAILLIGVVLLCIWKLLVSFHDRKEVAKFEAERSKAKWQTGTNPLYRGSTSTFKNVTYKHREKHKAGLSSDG

[5] = target: cynomolgus αVβ6 on cells (cynomolgus); assay: FACS, transfected HEK-293 (parental: 0)
[6] = target: mouse αVβ6 on cells (mouse) (UniProt P43406); assay: FACS, transfected HEK-293 (parental: 0)
Chain of mouse αVβ6 on cells (mouse) (P43406 31-1044, chain 1 of 2): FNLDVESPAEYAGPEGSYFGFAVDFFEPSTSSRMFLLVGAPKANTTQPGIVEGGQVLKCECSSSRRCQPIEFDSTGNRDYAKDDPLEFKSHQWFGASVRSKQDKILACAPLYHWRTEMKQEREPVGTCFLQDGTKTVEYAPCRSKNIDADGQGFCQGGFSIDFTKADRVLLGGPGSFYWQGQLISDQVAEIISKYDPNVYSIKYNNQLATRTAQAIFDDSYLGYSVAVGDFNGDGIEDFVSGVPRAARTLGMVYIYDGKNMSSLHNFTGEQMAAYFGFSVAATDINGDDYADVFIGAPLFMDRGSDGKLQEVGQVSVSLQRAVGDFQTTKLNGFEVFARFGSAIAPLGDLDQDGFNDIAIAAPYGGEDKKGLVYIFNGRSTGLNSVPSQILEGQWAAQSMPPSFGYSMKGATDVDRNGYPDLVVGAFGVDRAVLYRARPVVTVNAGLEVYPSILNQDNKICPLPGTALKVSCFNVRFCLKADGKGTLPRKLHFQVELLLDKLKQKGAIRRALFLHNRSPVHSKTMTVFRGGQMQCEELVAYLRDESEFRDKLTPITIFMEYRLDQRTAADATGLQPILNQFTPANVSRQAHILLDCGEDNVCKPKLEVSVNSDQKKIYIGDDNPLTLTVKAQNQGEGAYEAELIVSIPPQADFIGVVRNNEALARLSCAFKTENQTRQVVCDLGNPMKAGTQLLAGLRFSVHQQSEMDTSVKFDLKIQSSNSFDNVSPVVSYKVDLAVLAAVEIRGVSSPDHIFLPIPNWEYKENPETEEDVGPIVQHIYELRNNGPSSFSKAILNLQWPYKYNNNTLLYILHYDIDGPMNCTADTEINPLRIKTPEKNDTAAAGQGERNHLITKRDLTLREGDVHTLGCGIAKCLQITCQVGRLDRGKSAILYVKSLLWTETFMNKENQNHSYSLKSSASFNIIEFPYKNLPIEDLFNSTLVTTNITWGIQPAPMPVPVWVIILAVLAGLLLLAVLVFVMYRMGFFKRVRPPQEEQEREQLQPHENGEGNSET
Chain of mouse αVβ6 on cells (mouse) (Q9Z0T9 22-787, chain 2 of 2, further chain): as the sequence (Q9Z0T9 22-787) above

[7] = target: cynomolgus αV on transfected HEK-293 cells (cynomolgus); assay: FACS, transfected HEK-293 (parental: 0)
[8] = target: mouse αV on transfected HEK-293 cells (mouse) (UniProt P43406); assay: FACS, transfected HEK-293 (parental: 0)
Chain of mouse αV on transfected HEK-293 cells (mouse) (P43406 31-1044): as the sequence (P43406 31-1044, chain 1 of 2) above

[9] = target: cynomolgus β6 on transfected HEK-293 cells (cynomolgus); assay: FACS, transfected HEK-293 (parental: 0)
[10] = target: human αVβ6 integrin on cells (human) (UniProt P06756); assay: FMAT, 1 ug/mL, HEK 293 cells stably overexpressing αVβ6
Chain of human αVβ6 integrin on cells (human) (P06756 31-1048, chain 1 of 2): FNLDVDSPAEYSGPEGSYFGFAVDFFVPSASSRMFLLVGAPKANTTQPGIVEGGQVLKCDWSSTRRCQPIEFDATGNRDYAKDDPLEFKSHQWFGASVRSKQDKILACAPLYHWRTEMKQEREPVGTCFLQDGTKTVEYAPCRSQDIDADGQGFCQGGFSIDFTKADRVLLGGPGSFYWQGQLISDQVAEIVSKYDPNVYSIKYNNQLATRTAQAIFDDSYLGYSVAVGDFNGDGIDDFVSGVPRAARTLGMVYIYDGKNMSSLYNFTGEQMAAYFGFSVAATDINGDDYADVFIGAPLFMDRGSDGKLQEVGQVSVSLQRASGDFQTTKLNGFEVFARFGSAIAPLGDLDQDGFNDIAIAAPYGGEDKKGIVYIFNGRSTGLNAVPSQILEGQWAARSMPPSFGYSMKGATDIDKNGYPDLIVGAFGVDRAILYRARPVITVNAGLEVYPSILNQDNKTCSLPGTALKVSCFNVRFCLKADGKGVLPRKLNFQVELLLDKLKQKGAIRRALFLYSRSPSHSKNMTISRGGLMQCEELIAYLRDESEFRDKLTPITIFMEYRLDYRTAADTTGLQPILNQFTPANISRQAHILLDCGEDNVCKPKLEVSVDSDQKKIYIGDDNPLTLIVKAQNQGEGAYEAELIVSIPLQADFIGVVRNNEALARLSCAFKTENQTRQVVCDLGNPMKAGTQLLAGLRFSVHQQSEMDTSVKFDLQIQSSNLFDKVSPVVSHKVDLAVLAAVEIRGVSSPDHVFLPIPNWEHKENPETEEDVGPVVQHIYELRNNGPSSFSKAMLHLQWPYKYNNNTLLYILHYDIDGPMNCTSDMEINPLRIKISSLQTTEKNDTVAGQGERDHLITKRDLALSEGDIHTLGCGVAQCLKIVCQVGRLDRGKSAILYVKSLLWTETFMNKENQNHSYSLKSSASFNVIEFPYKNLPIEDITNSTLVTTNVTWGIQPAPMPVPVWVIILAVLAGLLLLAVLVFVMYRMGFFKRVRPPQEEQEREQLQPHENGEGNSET
Chain of human αVβ6 integrin on cells (human) (P18564 22-788, chain 2 of 2, further chain): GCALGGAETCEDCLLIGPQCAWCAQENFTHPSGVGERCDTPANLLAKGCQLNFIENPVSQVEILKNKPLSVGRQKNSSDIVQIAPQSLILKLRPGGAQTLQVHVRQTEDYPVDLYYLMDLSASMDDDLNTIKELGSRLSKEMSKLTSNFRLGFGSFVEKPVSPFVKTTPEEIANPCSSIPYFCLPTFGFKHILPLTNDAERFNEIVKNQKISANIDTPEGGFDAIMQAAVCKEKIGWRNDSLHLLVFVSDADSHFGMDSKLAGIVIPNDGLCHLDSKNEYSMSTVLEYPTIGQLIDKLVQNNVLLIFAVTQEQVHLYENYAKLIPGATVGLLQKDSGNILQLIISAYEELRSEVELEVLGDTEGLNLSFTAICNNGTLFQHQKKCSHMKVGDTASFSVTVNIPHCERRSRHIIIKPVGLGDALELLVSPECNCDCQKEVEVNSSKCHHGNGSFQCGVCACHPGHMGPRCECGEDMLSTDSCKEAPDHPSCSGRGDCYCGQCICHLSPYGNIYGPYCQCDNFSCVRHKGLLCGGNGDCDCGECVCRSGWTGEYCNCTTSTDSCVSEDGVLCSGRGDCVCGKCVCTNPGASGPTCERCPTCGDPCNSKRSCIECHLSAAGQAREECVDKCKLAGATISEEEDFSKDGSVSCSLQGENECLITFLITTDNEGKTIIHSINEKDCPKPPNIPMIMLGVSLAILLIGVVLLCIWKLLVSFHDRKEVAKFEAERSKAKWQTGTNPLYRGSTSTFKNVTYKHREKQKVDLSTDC

[11] = target: mouse αVβ6 on cells (mouse) (UniProt P43406); assay: FACS, K562 cells expressing mouse αVβ6 (parental K562: 15)
[12] = target: human αVβ6 integrin on cells (human) (UniProt P06756); assay: cell-based or functional assay
[13] = target: human αV on parental A375M cells (αVβ3 and αVβ5 integrins) (human) (UniProt P06756); assay: FACS, 1 ug/ml, parental A375M cells, day 2
[14] = target: human αV on parental A375M cells (αVβ3 and αVβ5 integrins) (human) (UniProt P06756); assay: FACS, 1 ug/ml, parental A375M cells, day 1
[15] = target: cynomolgus αVβ6 on cells (cynomolgus); assay: FACS, 1 ug/ml, HEK-293 transfected with cynomolgus αV and β6, day 1
soluble αVβ6 (human) = soluble αVβ6 (human) (UniProt P06756); assay: ELISA, 1 ug/mL on plate-coated soluble αVβ6
[16] = target: cynomolgus αVβ6 on cells (cynomolgus); assay: FACS, K562 cells expressing cynomolgus αVβ6 (parental K562: 15)
[17] = target: cynomolgus αVβ6 on cells (cynomolgus); assay: FACS, 1 ug/ml, HEK-293 transfected with cynomolgus αV and β6, day 2

Chain of human αV on parental A375M cells (αVβ3 and αVβ5 integrins) (human) (P06756 31-1048 A375M, form in doubt): as the sequence (P06756 31-1048, chain 1 of 2) above, with A345M counted along it

Percent Inhibition of J6.77 adhesion to CS-1 peptide, 5 ug/ml [1]: -9%
Substance: Human IgG2 (antibody)

Percent Inhibition of A375M adhesion to osteopontin peptide, 5 ug/ml [3]: 5%
Substance: Mouse IgG Control (antibody)

percent of cells shifted [4]: 11% | percent of cells shifted [5]: 20% | percent of cells shifted [6]: 45% | percent of cells shifted [7]: 0% | percent of cells shifted [8]: 1% | percent of cells shifted [9]: 5% | FMAT Count [10]: 67 | FMAT FL1 [10]: 659 | FMAT FL1XCount [10]: 44200 | Geometric Mean Shift (arbitrary units) [11]: 122 | Estimated IC50, adhesion assay, n = 1 [12]: 0.226 µg/mL | Estimated IC50, adhesion assay, n = 2 [12]: 0.185 µg/mL | Estimated IC50, adhesion assay, n = 3 [12]: 0.286 µg/mL | % Cells Shifted [13]: 5% | GeoMean [13]: 15.4 | % Cells Shifted [14]: 30% | GeoMean [14]: 2.03 | % Cells Shifted [15]: 42% | GeoMean [15]: 55.5 | ELISA OD (soluble αVβ6 (human)): 6 OD | Geometric Mean Shift (arbitrary units) [16]: 84 | % Cells Shifted [17]: 11% | GeoMean [17]: 28.1
Substance: murine anti-αVβ6 antibody 2077z (Cat#MAB2077z, Chemicon)

The next lines start with the substance.

Substance: Human IgG1 (antibody)
Percent Inhibition of J6.77 adhesion to CS-1 peptide, 5 ug/ml [1]: -6%

Substance: Human IgG Isotype Control (antibody)
% Inhibition of K562 adhesion to fibronectin [2]: -12% | Percent Inhibition of K562 adhesion to FN9-10, 5 ug/ml [2]: 11% | Percent Inhibition of A375M adhesion to osteopontin peptide, 5 ug/ml [3]: 3%
